# Source: patent US20140087995A1 (published 2014)
# Numbered stars: 1 amine (or outer) side, 2 acyl side, 3 side chain; on linkers, the order of the positions; unused ones are H or OH. Bridge positions count the residues as written; N and C are the ends. Side chains are listed from the residue outwards. Ends that are not written are not given here. * marks the point of attachment. C20 diacid = O=C(O)CCCCCCCCCCCCCCCCCCC(=O)*; γGlu = O=C(O)[C@H](CCC(=O)[*:2])N[*:1]; AEEA = NCCOCCOCC(=O)O
# T1: rat calcitonin receptor (rat, UniProt P32214 25-516)
# T1 construct: whole, on cells; Used as membranes prepared from the transfected cells; also called rCTR; rCT
# T1 sequence (looked up): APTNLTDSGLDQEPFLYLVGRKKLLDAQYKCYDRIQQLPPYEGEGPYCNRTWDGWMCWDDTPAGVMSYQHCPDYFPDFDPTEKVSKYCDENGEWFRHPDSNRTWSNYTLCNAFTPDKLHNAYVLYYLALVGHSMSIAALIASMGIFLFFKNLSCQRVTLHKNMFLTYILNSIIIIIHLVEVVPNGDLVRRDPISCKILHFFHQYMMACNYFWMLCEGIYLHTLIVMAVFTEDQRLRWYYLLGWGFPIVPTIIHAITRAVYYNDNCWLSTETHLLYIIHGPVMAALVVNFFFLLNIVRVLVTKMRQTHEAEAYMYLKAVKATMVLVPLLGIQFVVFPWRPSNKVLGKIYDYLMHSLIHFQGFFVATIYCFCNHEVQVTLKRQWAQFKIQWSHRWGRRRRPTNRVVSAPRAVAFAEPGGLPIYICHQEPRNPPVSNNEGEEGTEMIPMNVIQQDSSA
# T2: human calcitonin receptor (human, UniProt P30988 25-474)
# T2 construct: whole, on cells; Used as membranes prepared from the transfected cells; also called hCTR; hCT
# T2 sequence (looked up): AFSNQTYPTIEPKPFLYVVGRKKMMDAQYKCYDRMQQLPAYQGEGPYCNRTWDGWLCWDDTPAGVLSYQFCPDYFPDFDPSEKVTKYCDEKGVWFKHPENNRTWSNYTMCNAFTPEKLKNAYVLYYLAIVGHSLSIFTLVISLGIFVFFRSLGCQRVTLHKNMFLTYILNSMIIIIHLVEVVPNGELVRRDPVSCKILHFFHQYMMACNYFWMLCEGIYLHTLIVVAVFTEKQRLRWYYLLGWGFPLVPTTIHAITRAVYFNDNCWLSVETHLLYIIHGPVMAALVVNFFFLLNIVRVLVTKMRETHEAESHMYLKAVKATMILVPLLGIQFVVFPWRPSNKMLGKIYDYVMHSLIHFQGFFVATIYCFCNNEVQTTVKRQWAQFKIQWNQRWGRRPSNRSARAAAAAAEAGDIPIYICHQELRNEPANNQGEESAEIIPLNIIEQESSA
# T3: rat amylin receptor (rat calcitonin receptor with rat RAMP 3) (rat, UniProt P32214 25-516; Q9JJ73 23-147)
# T3 construct: whole, on cells; Used as membranes prepared from the transfected cells; also called rAmylin-R; rAmylin
# T3 sequence (looked up) 1: T1 sequence (looked up)
# T3 sequence (looked up) 2: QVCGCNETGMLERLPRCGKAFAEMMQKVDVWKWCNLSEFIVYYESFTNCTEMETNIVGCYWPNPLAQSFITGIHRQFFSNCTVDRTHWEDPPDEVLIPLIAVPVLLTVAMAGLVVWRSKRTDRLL
# B1: N^ε1-[2-[2-[2-[[2-[2-[2-[[(4S)-4-carboxy-4-(19-carboxynonadecanoylamino)butanoyl]amino]ethoxy]ethoxy]acetyl]amino]ethoxy]ethoxy]acetyl]-[Arg17,Pro21,Pro27,Pro31 … (peptide)
# peptide: K([AEEA-AEEA-γGlu-C20 diacid])CNTATCATQRLANFLRHSSPNFGAIPSSTPVGSNTY-NH2
# modifications: disulfide 2-7; N-terminus assumed
# SMILES: CC[C@H](C)[C@H](NC(=O)[C@H](C)NC(=O)CNC(=O)[C@H](Cc1ccccc1)NC(=O)[C@H](CC(N)=O)NC(=O)[C@@H]1CCCN1C(=O)[C@H](CO)NC(=O)[C@H](CO)NC(=O)[C@H](Cc1c[nH]cn1)NC(=O)[C@H](CCCNC(=N)N)NC(=O)[C@H](CC(C)C)NC(=O)[C@H](Cc1ccccc1)NC(=O)[C@H](CC(N)=O)NC(=O)[C@H](C)NC(=O)[C@H](CC(C)C)NC(=O)[C@H](CCCNC(=N)N)NC(=O)[C@H](CCC(N)=O)NC(=O)[C@@H](NC(=O)[C@H](C)NC(=O)[C@@H]1CSSC[C@H](NC(=O)[C@@H](N)CCCCNC(=O)COCCOCCNC(=O)COCCOCCNC(=O)CC[C@H](NC(=O)CCCCCCCCCCCCCCCCCCC(=O)O)C(=O)O)C(=O)N[C@@H](CC(N)=O)C(=O)N[C@@H]([C@@H](C)O)C(=O)N[C@@H](C)C(=O)N[C@@H]([C@@H](C)O)C(=O)N1)[C@@H](C)O)C(=O)N1CCC[C@H]1C(=O)N[C@@H](CO)C(=O)N[C@@H](CO)C(=O)N[C@H](C(=O)N1CCC[C@H]1C(=O)N[C@H](C(=O)NCC(=O)N[C@@H](CO)C(=O)N[C@@H](CC(N)=O)C(=O)N[C@H](C(=O)N[C@@H](Cc1ccc(O)cc1)C(N)=O)[C@@H](C)O)C(C)C)[C@@H](C)O
# notes: Analogue of human amylin; disulfide and C-terminal amide as told for h-amylin; also called compound 96
# B2: N^ε1-[2-[2-[2-[[2-[2-[2-[[(4S)-4-carboxy-4-(19-carboxynonadecanoylamino)butanoyl]amino]ethoxy]ethoxy]acetyl]amino]ethoxy]ethoxy]acetyl]-[Arg17,Pro21,Pro27,Pro34 … (peptide)
# peptide: K([AEEA-AEEA-γGlu-C20 diacid])CNTATCATQRLANFLRHSSPNFGAIPSSTNVGPNTY-NH2
# modifications: disulfide 2-7; N-terminus assumed
# SMILES: CC[C@H](C)[C@H](NC(=O)[C@H](C)NC(=O)CNC(=O)[C@H](Cc1ccccc1)NC(=O)[C@H](CC(N)=O)NC(=O)[C@@H]1CCCN1C(=O)[C@H](CO)NC(=O)[C@H](CO)NC(=O)[C@H](Cc1c[nH]cn1)NC(=O)[C@H](CCCNC(=N)N)NC(=O)[C@H](CC(C)C)NC(=O)[C@H](Cc1ccccc1)NC(=O)[C@H](CC(N)=O)NC(=O)[C@H](C)NC(=O)[C@H](CC(C)C)NC(=O)[C@H](CCCNC(=N)N)NC(=O)[C@H](CCC(N)=O)NC(=O)[C@@H](NC(=O)[C@H](C)NC(=O)[C@@H]1CSSC[C@H](NC(=O)[C@@H](N)CCCCNC(=O)COCCOCCNC(=O)COCCOCCNC(=O)CC[C@H](NC(=O)CCCCCCCCCCCCCCCCCCC(=O)O)C(=O)O)C(=O)N[C@@H](CC(N)=O)C(=O)N[C@@H]([C@@H](C)O)C(=O)N[C@@H](C)C(=O)N[C@@H]([C@@H](C)O)C(=O)N1)[C@@H](C)O)C(=O)N1CCC[C@H]1C(=O)N[C@@H](CO)C(=O)N[C@@H](CO)C(=O)N[C@H](C(=O)N[C@@H](CC(N)=O)C(=O)N[C@H](C(=O)NCC(=O)N1CCC[C@H]1C(=O)N[C@@H](CC(N)=O)C(=O)N[C@H](C(=O)N[C@@H](Cc1ccc(O)cc1)C(N)=O)[C@@H](C)O)C(C)C)[C@@H](C)O
# notes: Analogue of human amylin; disulfide and C-terminal amide as told for h-amylin; also called compound 98
# B3: N^ε1-[(4S)-4-carboxy-4-(19-carboxynonadecanoylamino)butanoyl]-[Ala14,Arg17,Pro21,Pro27,Pro34]-h-amylin (peptide)
# peptide: K([γGlu-C20 diacid])CNTATCATQRLAAFLRHSSPNFGAIPSSTNVGPNTY-NH2
# modifications: disulfide 2-7; N-terminus assumed
# SMILES: CC[C@H](C)[C@H](NC(=O)[C@H](C)NC(=O)CNC(=O)[C@H](Cc1ccccc1)NC(=O)[C@H](CC(N)=O)NC(=O)[C@@H]1CCCN1C(=O)[C@H](CO)NC(=O)[C@H](CO)NC(=O)[C@H](Cc1c[nH]cn1)NC(=O)[C@H](CCCNC(=N)N)NC(=O)[C@H](CC(C)C)NC(=O)[C@H](Cc1ccccc1)NC(=O)[C@H](C)NC(=O)[C@H](C)NC(=O)[C@H](CC(C)C)NC(=O)[C@H](CCCNC(=N)N)NC(=O)[C@H](CCC(N)=O)NC(=O)[C@@H](NC(=O)[C@H](C)NC(=O)[C@@H]1CSSC[C@H](NC(=O)[C@@H](N)CCCCNC(=O)CC[C@H](NC(=O)CCCCCCCCCCCCCCCCCCC(=O)O)C(=O)O)C(=O)N[C@@H](CC(N)=O)C(=O)N[C@@H]([C@@H](C)O)C(=O)N[C@@H](C)C(=O)N[C@@H]([C@@H](C)O)C(=O)N1)[C@@H](C)O)C(=O)N1CCC[C@H]1C(=O)N[C@@H](CO)C(=O)N[C@@H](CO)C(=O)N[C@H](C(=O)N[C@@H](CC(N)=O)C(=O)N[C@H](C(=O)NCC(=O)N1CCC[C@H]1C(=O)N[C@@H](CC(N)=O)C(=O)N[C@H](C(=O)N[C@@H](Cc1ccc(O)cc1)C(N)=O)[C@@H](C)O)C(C)C)[C@@H](C)O
# notes: Analogue of human amylin; disulfide and C-terminal amide as told for h-amylin; also called compound 94
# B4: N^ε1N^ε1-[(4S)-4-carboxy-4-(19-carboxynonadecanoylamino)butanoyl]-[His14,Arg17,Pro21,Pro27,Pro34]-h-amylin (peptide)
# peptide: K([γGlu-C20 diacid])CNTATCATQRLAHFLRHSSPNFGAIPSSTNVGPNTY-NH2
# modifications: disulfide 2-7; N-terminus assumed
# SMILES: CC[C@H](C)[C@H](NC(=O)[C@H](C)NC(=O)CNC(=O)[C@H](Cc1ccccc1)NC(=O)[C@H](CC(N)=O)NC(=O)[C@@H]1CCCN1C(=O)[C@H](CO)NC(=O)[C@H](CO)NC(=O)[C@H](Cc1c[nH]cn1)NC(=O)[C@H](CCCNC(=N)N)NC(=O)[C@H](CC(C)C)NC(=O)[C@H](Cc1ccccc1)NC(=O)[C@H](Cc1c[nH]cn1)NC(=O)[C@H](C)NC(=O)[C@H](CC(C)C)NC(=O)[C@H](CCCNC(=N)N)NC(=O)[C@H](CCC(N)=O)NC(=O)[C@@H](NC(=O)[C@H](C)NC(=O)[C@@H]1CSSC[C@H](NC(=O)[C@@H](N)CCCCNC(=O)CC[C@H](NC(=O)CCCCCCCCCCCCCCCCCCC(=O)O)C(=O)O)C(=O)N[C@@H](CC(N)=O)C(=O)N[C@@H]([C@@H](C)O)C(=O)N[C@@H](C)C(=O)N[C@@H]([C@@H](C)O)C(=O)N1)[C@@H](C)O)C(=O)N1CCC[C@H]1C(=O)N[C@@H](CO)C(=O)N[C@@H](CO)C(=O)N[C@H](C(=O)N[C@@H](CC(N)=O)C(=O)N[C@H](C(=O)NCC(=O)N1CCC[C@H]1C(=O)N[C@@H](CC(N)=O)C(=O)N[C@H](C(=O)N[C@@H](Cc1ccc(O)cc1)C(N)=O)[C@@H](C)O)C(C)C)[C@@H](C)O
# notes: Analogue of human amylin; disulfide and C-terminal amide as told for h-amylin; also called compound 67
# B5: N^-1-[(4S)-4-carboxy-4-(19-carboxynonadecanoylamino)butanoyl]-Gly[Arg1,His14,Arg17,Pro21,Pro27,His34]-h-amylin (peptide)
# peptide: {C20 diacid-γGlu}-GRCNTATCATQRLAHFLRHSSPNFGAIPSSTNVGHNTY-NH2
# modifications: disulfide 3-8
# SMILES: CC[C@H](C)[C@H](NC(=O)[C@H](C)NC(=O)CNC(=O)[C@H](Cc1ccccc1)NC(=O)[C@H](CC(N)=O)NC(=O)[C@@H]1CCCN1C(=O)[C@H](CO)NC(=O)[C@H](CO)NC(=O)[C@H](Cc1c[nH]cn1)NC(=O)[C@H](CCCNC(=N)N)NC(=O)[C@H](CC(C)C)NC(=O)[C@H](Cc1ccccc1)NC(=O)[C@H](Cc1c[nH]cn1)NC(=O)[C@H](C)NC(=O)[C@H](CC(C)C)NC(=O)[C@H](CCCNC(=N)N)NC(=O)[C@H](CCC(N)=O)NC(=O)[C@@H](NC(=O)[C@H](C)NC(=O)[C@@H]1CSSC[C@H](NC(=O)[C@H](CCCNC(=N)N)NC(=O)CNC(=O)CC[C@H](NC(=O)CCCCCCCCCCCCCCCCCCC(=O)O)C(=O)O)C(=O)N[C@@H](CC(N)=O)C(=O)N[C@@H]([C@@H](C)O)C(=O)N[C@@H](C)C(=O)N[C@@H]([C@@H](C)O)C(=O)N1)[C@@H](C)O)C(=O)N1CCC[C@H]1C(=O)N[C@@H](CO)C(=O)N[C@@H](CO)C(=O)N[C@H](C(=O)N[C@@H](CC(N)=O)C(=O)N[C@H](C(=O)NCC(=O)N[C@@H](Cc1c[nH]cn1)C(=O)N[C@@H](CC(N)=O)C(=O)N[C@H](C(=O)N[C@@H](Cc1ccc(O)cc1)C(N)=O)[C@@H](C)O)C(C)C)[C@@H](C)O
# notes: Analogue of human amylin extended by Gly at the N-terminus; disulfide and C-terminal amide as told for h-amylin; also called compound 100
# Biological target: T1, rat calcitonin receptor
# Assay: SPA competition with 125I-calcitonin, membranes with rat calcitonin receptor (Assay VIII)
row,Binder,IC50 [nM]
1,B1,62.2
2,B2,24.1
3,B3,111
4,B4,14.7
5,B5,311

# Biological target: T1, rat calcitonin receptor
# Assay: ratio of binding IC50 at rat calcitonin receptor to IC50 at rat amylin receptor (reference)
row,Binder,Ratio rCT/rAmylin binding
1,B1,118
2,B2,176
3,B3,280
4,B4,85.4
5,B5,27.7

# Biological target: T2, human calcitonin receptor
# Assay: ratio of binding IC50 at human calcitonin receptor to IC50 at human amylin receptor (reference)
# Method in brief: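 Membranes (35 ng/μL final) + SPA beads, 50 mM Hepes pH 7.4 buffer with 1 mM CaCl2, 5 mM MgCl₂, 0.1% OA, 0.02% Tween20; 120 min, 25° C, shaking; centrifuged, counted; IC₅₀ by one-site binding competition.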
row,Binder,Ratio hCT/hAmylin binding
1,B1,79.6
2,B2,74.1
3,B3,46.3
4,B4,51.6
5,B5,65.3

# Biological target: T3, rat amylin receptor (rat calcitonin …)
# Assay: SPA competition with 125I-rat amylin, membranes with rat calcitonin receptor + rat RAMP3 (Assay VI)
row,Binder,IC50 [nM]
1,B1,0.529
2,B2,0.137
3,B3,0.397
4,B4,0.172
5,B5,11.2
